Test results as given in the supplement of paper PMC9170038.

Tested on: MS2 coat protein
Assay: apparent KD of MS2 coat protein; designed switch direction (-1 OFF switch, 1 ON switch): -1; higher = weaker reporter binding
Outline: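 Transcription of designed RNA switches on Illumina chips was done by stalled E. coli RNA polymerase. SNAP-549-labelled MS2 coat protein was then titrated in doubling steps from 0.7 or 1.5 nM to 3 µM, with steps of 0.8–1.5 h at the lowest and 10–20 min at the highest concentration. The per-design median over clusters of curve-fitted normalised fluorescence is reported as apparent KD.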

[1] = Eterna round: R95, input ligand: FMN 200 uM
[2] = Eterna round: R95, input ligand: microRNA oligo, concentration not stated
[3] = Eterna round: R95, input ligand: none
[4] = input ligand: microRNA oligo, concentration not stated

Sequence | apparent KD of MS2 coat protein (input ligand: FMN 200 uM) [nM] | apparent KD of MS2 coat protein (input ligand: none) [nM] | apparent KD of MS2 coat protein [1] [nM] | apparent KD of MS2 coat protein [2] [nM] | apparent KD of MS2 coat protein [3] [nM] | apparent KD of MS2 coat protein [4] [nM]
AAUUUACAUGAGGAUCACCCAUGUGAGGAUAUAUAAAUAUAUAUGUUAUUGUAUGUUUGUAGAAGGCGCGUGAU [JR_Exc1_Sub031] (Eterna round: R97, puzzle: Exclusion 1) | 145 | 83.3 | – | – | – | –
CAUCAGGGAGGAUAUACAUAACUAAAAGGCUAGCAGUCCGUACAUGAGGAUCACCCAUGUAGAAGGCCCGAGUA [EX2 B.6] (Eterna round: R97, puzzle: Exclusion 2) | 46.9 | 20 | – | – | – | –
GGUCUGCGAGGAUAUACAUGAGGAUCACCCAUGUGAGUGAAACUAGUGAGGUCGAUUGGUAGAAGGCGCGGACG [Mat - Exclusion 3 - Mod of JL D82] (puzzle: Exclusion 3) | – | – | 17.7 | 63 | 17.5 | –
UUCAUGUGAGGAUAUUAGUAGUAAAUGAAUAAAAUUAUUACUGAGAAGGUACAUGAGGAUCACCCAUGUUCCUU [Mat - Exclusion 4 - Eli Mod - D21] (Eterna round: R97, puzzle: Exclusion 4) | 20.1 | 14.6 | – | – | – | –
UGAGCUUACGCAGGAUAUGAGGAUCACCCAUAGAAGGAUAUCGAAAGAGAAGGUCUGAGGAUUACCCAGAAGGGCGUGGGCUCU [pwkr exNG2 2xF5 2xFMN.11] (Eterna round: R96, puzzle: Exclusion NG 2) | 1290 | 131 | – | – | – | 125
UUAAUUAAUUAAGCGCAAGAUCACAUGAGGAUCACCCAUGUAUAGGAUAUCAGCUCGUUUAGAGCUGAGAAGGAUACAUAGCGC [ExNG3/2-A2] (Eterna round: R96, puzzle: Exclusion NG 3) | 738 | 172 | – | – | – | 155
CUUUUGUGAGGAUAUUGGUAGUAAAUAAAUAAAAUUAUUACCGAGAAGGUACAUGAGGAUCACCCAUGUUCCUC [Salish 062 v18] (Eterna round: R97, puzzle: Exclusion 4) | 32.1 | 18.2 | – | – | – | –
AACAAGUGAGGAUAUGAACCACUUGCCCACGCAUGCGUGGAUCAGAAGGCACUUGAGGAUCACCCAAGUCCUAA [Texeusso] (Eterna round: R97, puzzle: Exclusion 4) | 49.7 | 21.3 | – | – | – | –
GUGUAACUACACGGGCUCAACAUGAGGAUCACCCAUGUCAUACACGCAAGCUUUUUGCUUGUCUUAUCUGUCCGUGU [Cegeesre] (puzzle: Sensor v3, turn-off variant 1) | – | – | 12.4 | 12.2 | 11.5 | –
UCAUGUCCGGAGGAUAUGGCGCCCGUAAGGGCGCCAGAAGGCCGGACAUGAGGAUCACCCAUGUCGGCCUUCCC (Eterna round: R97, puzzle: Exclusion 6) | 22.1 | 28.4 | – | – | – | –
CCGUGCACGCUCCGGUCCUACAUGAGGAUCACCCAUGUGGUCCGGUGGCGUGGGUCGCCGGACUUGGCUCGUCUUGU [salish99_S_TOV1_R5_018] (Eterna round: R97, puzzle: Sensor, turn-off variant 1) | 16.3 | 17.4 | – | – | – | –
GGUACUCAAAGAGUACCAAUACGAACAUGAGGAUCACCCAUGUAGGAUAUGCUACUCAAAGAGUAGCAGAAGGACGUGAACCCU [Far Half Aptamer] (Eterna round: R96, puzzle: Exclusion NG 3) | 164 | 40.5 | – | – | – | 26.5
AUGCCCUGAGGAUAUCUCAUCCCGCACAUGAGGAUCACCCAUGUUCUUCUCCGGGUUUCGAGAGAAGGCAGGCCUA [Armus4] (Eterna round: R97, puzzle: Exclusion 5) | 79.4 | 249 | – | – | – | –
AAAACGGCAGGAUAUCGGAACAAUGACAUGAGGAUCACCCAUGUGAUCGUUUCACUUGGCCGAGAAGGGCCAAAAU [Xeinbelele] (puzzle: Exclusion 5) | – | – | 54.6 | 18.6 | 17.4 | –
ACAAGCUUUUUGCAACAAGCAUUAAACUCUCAGAUCGUAACAUGAGGAUCACCCAUGUAAGUUUUAUGACGUCUUAU [JR_SV3TOV2_Sub095] (puzzle: Sensor v3, turn-off variant 2) | – | – | 20.8 | 18.1 | 22.9 | –
AAUUUACAUGAGGAUCACCCAUGUGAGGAUAUAUGUUUUAAUUUUUUUUUUUUUUUACAUAGAAGGCGCGUGAU [JR_Exc1_Sub046] (Eterna round: R97, puzzle: Exclusion 1) | 51.7 | 58.5 | – | – | – | –
CCGAAUAAGUAGGAUAUCGUAUCGGAAACGAUACGAGAAGGGCUAACAUGAGGAUCACCCAUGUUCCUUAACGG [Fiskers Ex 6 - 16] (puzzle: Exclusion 6) | – | – | 20 | 16.4 | 18.7 | –

Sequence | apparent KD of MS2 coat protein (input ligand: FMN 200 uM) [nM] | apparent KD of MS2 coat protein (input ligand: none) [nM] | apparent KD of MS2 coat protein [1] [nM] | apparent KD of MS2 coat protein [2] [nM] | apparent KD of MS2 coat protein [3] [nM] | apparent KD of MS2 coat protein [4] [nM]
UAAAUGUCAGGAUAUUGUUAAUUUAGUUGUUUGUAUUAGUUCGAGAAGGGACAUGAGGAUCACCCAUGUUAAAU [Ex4 #53] (Eterna round: R97, puzzle: Exclusion 4) | 45.9 | 30.4 | – | – | – | –
UGUUGUCGCGCAGGAUAUGAGGAUCACCCAUAUCAGGAUAUCGAAAGAGAAUUUCUGAGGAUCACCCAGAAGGGCGGGACAACU [pwkr exNG2 2xF5 2xFMN.34] (Eterna round: R96, puzzle: Exclusion NG 2) | 210 | 42.9 | – | – | – | 35.6
ACGUAGGUAGUUAGGAUAUUUAGUAUAUUUACAGUGAAGAAGGAACAUGAGGAUCACCCAUGUAGUGGUGUCCA [Eternabot (L1) Solution 68] (Eterna round: R97, puzzle: Brourd's mod of Exclusion 4) | 1200 | 3180 | – | – | – | –
UAAUUUUUAGUAAGGAUAUCGGUCCCAAGGGACAACGAGAAGGUACAUGAGGAUCACCCAUGUGACGAAAGAAU [Mod of Zala 9 - Jieux - Brourd's Mod of Exclusion 4] (Eterna round: R97, puzzle: Brourd's mod of Exclusion 4) | 35.6 | 15.5 | – | – | – | –
GCUGUAGAAGGAUAUGCUUCGACUCACAUGAGGAUCACCCAUGUCUUCGUGCAGUCGUCUGCAGAAGGUCUCCAGU [EX5 C.8] (Eterna round: R97, puzzle: Exclusion 5) | 1820 | 504 | – | – | – | –
CUUUGAUGAGGAUAUCGAGGUUAGUACAUGAGGAUCACCCAUGUUAUCCAGGUGUCGGUUCGAGAAGGUAUUGGAC [LRO-Ex5-17] (puzzle: Exclusion 5) | – | – | – | 15.6 | – | –
UUAAUUAAUUAAUUAUAAGAUCAACAUGAGGAUCACCCAUGUGAGGAUAUCAGCUCGUGUAGAGCUGAGAAGGCACAAAUAAUU [ExNG3/16-B3] (Eterna round: R96, puzzle: Exclusion NG 3) | 86.5 | 51.5 | – | – | – | 27.9
AAUAACAGAGGAUAUACUGUUUUAUGUGUUUAUUGUUUUGAACAUGAGGAUCACCCAUGUAGAAGGCUGAAUAA [JMF 25] (puzzle: Exclusion 2) | – | – | – | 20.1 | – | –
CUCCGGCGUGUAGGAUAUGGUUCCGUUUUGGUUCCAGAAGGACAUGAGGAUCACCCAUGUACAUGUCGUCGGUCGUCACCGGGC [salish99_ExNG1_r04_214] (Eterna round: R96, puzzle: Exclusion NG 1) | 104 | 29.8 | – | – | – | 22.2
AAAUAGCAUGAGGAUAUUGGACUGGAUUCAGUGCGAGAAGGCAUGACAUGAGGAUCACCCAUGUUGUGUUGGGA [EX6 #9] (Eterna round: R97, puzzle: Exclusion 6) | 42.6 | 17 | – | – | – | –
UGGUGGAAGCAGGAUAUGCUAGAAGUGUAGUUUGCAGAAGGGCUAACAUGAGGAUCACCCAUGUAAGAGGUGUU [JR_E6_Sub053] (puzzle: Exclusion 6) | – | – | 94.2 | 211 | 290 | –
CUUCACCCACCAGAGCUCACCCACAUACCAGCUCUGGUGACAUGAGGAUCACCCAUGUUUUUUGCCCGUCUUAUCUU [Intibima] (puzzle: Sensor v3, turn-off variant 2) | – | – | 41.3 | 189 | 46.8 | –
AGUCGGUCAGGAUAUGCAUACGUAGACAUGAGGAUCACCCAUGUGACGUGGGCCUGGUGUGUAGAAGGGACGAGCA [EX5 #82] (Eterna round: R97, puzzle: Exclusion 5) | 32.6 | 17.6 | – | – | – | –
GCGCAAACGCCAAAAGGCGAAACAACAUGAGGAUCACCCAUGUAGGAUAUCGAUUGCUUUGCAGUCGAGAAGGACGUAAUGCGC [JL ENG3 3.80 Mod 5] (Eterna round: R96, puzzle: Exclusion NG 3) | 12.7 | 22.1 | – | – | – | 14.9
AGAGAAUACUCAGGAUAUGUGAAUAGAUAGAGAACAGAAGGGAGACAUGAGGAUCACCCAUGUGAAGUCUUGAGGCUGCAUGGA [Prohibition 23 - Jieux - Exclusion NG 1] (Eterna round: R96, puzzle: Exclusion NG 1) | 403 | 337 | – | – | – | 408
AAUUUAACAUAGGAUAUCGAAUUUAUCAUUUAACGAGAAGGAUGAACAUGAGGAUCACCCAUGUGGUAUCAUGG [Mat - Exclusion 6 - JL Mod - D2] (puzzle: Exclusion 6) | – | – | 155 | 373 | 180 | –
AUAGUAUAGCAAGGAUAUCGAUUUAGUUUGUUACGAGAAGGUGCUUUAGUUUAUACCUCUUGUUUACAUGAGGAUCACCCAUGU [JR_ExcNG1_Sub048] (Eterna round: R96, puzzle: Exclusion NG 1) | – | – | – | – | – | 19.4
